Reference: patent US20150368652A1

Biological target: Kcna2 protein (Kv1.2), endogenous in rat dorsal root ganglion neurons (rat) (UniProt P63142)
Experiment: cell-based or functional assay

UniProt P63142, sequence (P63142 whole entry): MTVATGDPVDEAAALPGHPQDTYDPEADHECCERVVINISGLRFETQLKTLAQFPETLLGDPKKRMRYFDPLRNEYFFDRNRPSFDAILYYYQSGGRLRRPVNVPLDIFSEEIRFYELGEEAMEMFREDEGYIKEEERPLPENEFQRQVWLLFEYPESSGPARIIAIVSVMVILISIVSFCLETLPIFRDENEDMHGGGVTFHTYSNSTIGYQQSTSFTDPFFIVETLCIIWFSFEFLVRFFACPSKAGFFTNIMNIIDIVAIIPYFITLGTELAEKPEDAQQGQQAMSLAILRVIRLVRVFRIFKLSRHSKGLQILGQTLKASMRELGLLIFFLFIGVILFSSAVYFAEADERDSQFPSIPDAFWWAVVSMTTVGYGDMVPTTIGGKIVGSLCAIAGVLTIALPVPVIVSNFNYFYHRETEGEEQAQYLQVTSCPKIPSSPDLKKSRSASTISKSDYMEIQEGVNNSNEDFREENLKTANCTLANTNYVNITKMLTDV

maurotoxin (from UniProt P80719 1-34) (peptide)
total voltage-gated potassium current retained at +50 mV after 100 nM MTX, large DRG neurons, Kcna2 antisense-treated group (Kcna2 downregulated): 92.3 % of current
total voltage-gated potassium current retained at +50 mV after 100 nM MTX, large DRG neurons, control group (whole-cell voltage clamp): 81.7 % of current
total voltage-gated potassium current retained at +50 mV after 100 nM MTX, medium DRG neurons, Kcna2 antisense-treated group (Kcna2 downregulated): 94.9 % of current
total voltage-gated potassium current retained at +50 mV after 100 nM MTX, medium DRG neurons, control group (whole-cell voltage clamp): 85.1 % of current
